This passage reports Kd results from patent US20220251185A1 (VALITOR, published 2022).

As a reminder, the Kd is the constant that tells how readily two partners part at equilibrium. A higher Kd goes with weaker binding.

The target of this experiment is T1, VEGF (biotinylated target on streptavidin BLI probe) (UniProt P15692-4 27-191, limits assumed, biotin (site not stated)).
T1 construct: also called vascular endothelial growth factor
As to the kind of experiment: binding kinetics, Kd (nM); Example 6 describes BLI on biotinylated target.

T1 sequence (P15692 other isoform, or with tags, fused parts or gaps limits assumed): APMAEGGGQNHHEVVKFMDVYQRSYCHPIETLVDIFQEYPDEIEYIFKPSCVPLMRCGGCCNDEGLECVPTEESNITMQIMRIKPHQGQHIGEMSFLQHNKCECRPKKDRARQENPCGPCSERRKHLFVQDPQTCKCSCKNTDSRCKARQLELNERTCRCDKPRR

B1: G5-1 (VHH)
VHH: EVQLQASGGGFVQPGGSLRLSCAASGSTYANYVMGWFRQAPGKEREFVSAISAFNDEVLYYADSVKGRFTISRDNSKNTVYLQMNSLRAEDTATYYCARAGQEEASKNAPGQEPVRYWGQGTQVTVSS
notes: unconjugated comparator of conjugates 24 and 25; also called G5-1 aVEGF VHH, unconjugated; G5-1 alone
B1: the Kd was found to be 29.3 nM.
